Laboratory results published in patent publication US20050271676A1, “Inducing cellular immune responses to human immunodeficiency virus-1 using peptide and nucleic acid compositions” (Epimmune Inc., priority 1993, published 2005).
No end group written: not given here.

What was measured:
[1] = target: HLA-A*6801 (Homo sapiens, UniProt P04439, A269V/D185E/E176V/E277Q/E87N/F33Y/G231S/I121M/I166T/I218V/L180W/L300P/L318F/N151K/P208A/P217A/Q86R/R169H/T345S); assay: purified HLA class I binding assay, A*6801; details: binding value
[2] = target: HLA-A*1101 (Homo sapiens, UniProt P04439, A114D/D185E/E176A/F33Y/L180Q/S129P/T187R); assay: purified HLA class I binding assay, A*1101
[3] = target: HLA-A*3101 (Homo sapiens, UniProt P04439, A270S/D185E/E176V/E277Q/F33T/G231S/G80R/H175R/I121M/I218V/I322F/K168Q/L300P/L318F/M331R/P217A/Q94H/R138Q/T323A/T345S/T97I/V358M); assay: purified HLA class I binding assay, A*3101; details: for A*3101 binding information: binding value
[4] = target: T1, HLA-A*0301 (Homo sapiens, UniProt P04439); assay: purified HLA class I binding assay, A*0301; details: for A*0301 binding information: binding value
T1 construct: endogenous in cells; host or cells: GM3107

[5] = target: HLA-A*2402 (Homo sapiens, UniProt P04439, D101N/D140Y/D185E/E176V/E190D/F33S/G103R/G107R/I119L/I121M/I306V/K335N/L105A/L180Q/L300P/N151K/N90K/Q86E/Q94H/R106L/R138H/R89G/T104I/T345S/V100E/W191G/Y123F); assay: purified HLA class I binding assay, A*2402
[6] = target: HLA-DRB1*1302 (DR6w19) (Homo sapiens, UniProt P01903+P01911, A100E/A169T/K41T/L162R/M171V/P40S/Q125H/Q178H/Q39Y/Q99D/R42S/S66N/T262R/V115G/W38E/Y61H); assay: purified HLA class II binding assay, DRB1*1302 (DR6w19); details: Table XXb, HIV DR 3a motif peptides
[7] = target: T2, HLA-DRB1*0802 (DR8w2) (Homo sapiens, UniProt P01903+P01911, A100R/A103L/A169T/F76Y/H45Y/I96F/K41T/L162R/M171V/P40S/Q125H/Q178H/Q39Y/Q99D/R218S/R42G/S66Y/V115G/W38E); assay: biochemical; format: binding
T2 construct: endogenous in cells

[8] = target: T3, HLA-DRB1*0901 (DR9) (Homo sapiens, UniProt P01903+P01911, A100R/A103E/D57H/D86V/F55Y/F60I/F76Y/I96F/K127E/L162R/M171V/P40D/Q125H/Q99R/R33Q/R42F/S133A/S66N/T210M/V115G/W38K/Y107V/Y59G/Y89S); assay: biochemical; format: binding
T3 construct: endogenous in cells

[9] = target: T4, HLA-DRB1*0701 (DR7) (Homo sapiens, UniProt P01903+P01911, A100R/A102G/A103Q/D57E/D86V/E43K/F76Y/K127E/L162R/M171V/P40G/Q125H/Q99D/R33Q/R42Y/R54Q/S133A/S66F/T210M/V115G/Y107V/Y59L/Y89S); assay: biochemical; format: binding
T4 construct: endogenous in cells; host or cells: Pitout

[10] = target: HLA-A*3301 (Homo sapiens, UniProt P04439, A270S/D185E/E176V/E277Q/E87N/F33T/G231S/H175R/I121M/I218V/I322F/K168Q/K210R/L300P/L318F/M331R/P217A/Q86R/Q94H/R138Q/T323A/T345S/T97I/V358M/Y195H); assay: purified HLA class I binding assay, A*3301
[11] = target: HLA-A*0201 (Homo sapiens, UniProt P04439, D140Y/D185E/D98H/E176V/E277Q/G131W/G231S/I119V/I121R/I166T/I218V/L300P/L318F/N151K/N90K/P208A/P217A/Q86G/Q94H/R138H/R169H/T345S); assay: purified HLA class I binding assay, A*0201; details: HIV A02 super motif peptides, Table VIII; unit not given
[12] = target: T5, HLA-DRB1*0401 (DR4w4) (Homo sapiens, UniProt P01903+P01911, A100K/A169T/F76Y/I96L/K127E/L162R/M171V/N62H/P40V/Q125Y/R42H/S133A/S149N/S66Y/V115G/V209L/W38E); assay: purified HLA class II binding assay, DRB1*0401 (DR4w4)
T5 construct: endogenous in cells; host or cells: Preiss

[13] = target: T6, HLA-DRB5*0101 (DR2w2β2) (Homo sapiens, UniProt P01903+Q30154); assay: biochemical; format: binding
T6 construct: expressed in transfected cells

[14] = target: T7, HLA-DRB1*1101 (DR5w11) (Homo sapiens, UniProt P01903+P01911, A100R/A169T/A87E/I96F/K41T/L162R/M171V/P40S/Q125H/Q178H/Q39Y/Q99D/R42S/S66Y/T262R/V115G/W38E); assay: biochemical; format: binding
T7 construct: endogenous in cells

[15] = target: T8, HLA-DRB1*0301 (DR3) (Homo sapiens, UniProt P01903+P01911, A100K/A102G/A103R/A169T/F55Y/I96L/K41T/L162R/M171V/P40S/Q125H/Q178H/Q39Y/R42S/S66N/T106N/T262R/W38E/Y61H); assay: purified HLA class II binding assay, DRB1*0301 (DR3), pH 4.5; details: Table XXb, HIV DR 3a motif peptides
T8 construct: endogenous in cells; host or cells: MAT

[16] = Table IX, HIV A03 super motif peptides, unit not given
[17] = Table IX, HIV A03 super motif peptides, binding value, unit not given
[18] = Table XVII, HIV A11 motif peptides, binding value A*1101, unit not given
[19] = HIV A24 supermotif peptides, Table X, A*2401, unit not given
[20] = HIV A03 supermotif peptides, no unit given
[21] = HIV A24 supermotif peptides, purified HLA molecule, no unit printed in Table X

T5 sequence (P01903 26-254 partner, other chains not shown): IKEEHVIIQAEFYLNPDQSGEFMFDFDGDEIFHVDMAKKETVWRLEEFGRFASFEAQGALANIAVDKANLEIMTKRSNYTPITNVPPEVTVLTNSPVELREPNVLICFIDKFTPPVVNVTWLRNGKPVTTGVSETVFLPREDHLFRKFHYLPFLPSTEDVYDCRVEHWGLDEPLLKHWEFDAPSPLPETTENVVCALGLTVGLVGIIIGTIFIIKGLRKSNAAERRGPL
T7 sequence (P01903 26-254, other chains not shown): as the sequence (P01903 26-254 partner, other chains not shown) above
T8 sequence (P01903 26-254 partner, other chains not shown): as above

For ASCDKCQLK, the “A*6801 binding information” value [1, 16] was 0.0001, the “A*1101 (binding information)” value [2, 17] was 0.0140 and the “A*1101 (binding information)” value [2, 18] was 0.0040. The “A*3101 binding information” value [3, 16] was 0.0020, the “A0301 (HIV A03 Motif Peptides with Binding Information)” value ([4]; HIV POL-derived A03 motif peptides, binding value for purified HLA-A*0301, unit not given) was 0.0027 and the “A*0301 binding information” value [4, 16] was 0.0027.

In the case of DIQIKELQK, the “A*6801 binding information” value [1, 16] is reported as 0.0001, the “A*1101 (binding information)” value [2, 17] is reported as 0.0006 and the “A*3101 binding information” value [3, 16] is reported as 0.0006. The “A*0301 binding information” value [4, 16] was 0.0009.

FTTPDKKIIQK was tested, and the “A*6801 binding information” value [1, 16] was 0.0273, the “A*1101 (binding information)” value [2, 17] was 0.0150 and the “A*1101 (binding information)” value [2, 18] was 0.0150. The “A*3101 binding information” value [3, 16] was 0.0010 and the “A*0301 binding information” value [4, 16] was 0.0002.

For GIPHPAGLK, the “A*6801 binding information” value [1, 16] was 0.0110, the “A*1101 (binding information)” value [2, 17] was 0.0650 and the “A*3101 binding information” value [3, 16] was 0.0007.

In the case of GYELIIPDKW, the “A*2401 (binding information)” value [5, 19] is reported as 0.0001.

Sequence IKKEKVYLA has a DR6w19 binding information [6] of −0.0003, a DR8w2 binding information [7] of −0.0015 and a DR9 binding information [8] of 0.0011. It also gave a DR7 binding information [9] of −0.0005.

With IWQLDCTIIL the “A*2401 (binding information)” value [5, 19] was 0.0095.

IYQEPIKNL was tested, and the “A*2401 (binding information)” value [5, 19] was 0.0520.

KIQNFRVYYR [1211.32] gave an IC50 [3] of 2.7 nM and an IC50 [10] of 341 nM.

For KLTEERWNK, the “A*6801 binding information” value [1, 20] was 0.0002, the “A*1101 (binding information)” value ([2]; HIV A03 supermotif peptides, binding value, no unit given) was 0.2700 and the “A*3101 binding information” value [3, 20] was 0.0680. For the same sequence, the “A*0301 binding information” value [4, 20] was 0.0130.

With KMIGGIGGPI the “A*2401 (binding information)” value ([5]; HIV A24 motif peptides, purified HLA-A24 molecule, unit not given) was 0.0001.

In the case of NMVEQMIIEDI, the “A*2401 (binding information)” value [5, 21] is reported as 0.0004 and the “A*0201 (binding information)” value [11] is reported as 0.0001.

NMWQEVGKA was tested, and the “A*2401 (binding information)” value [5, 21] was 0.0001 and the “A*0201 (binding information)” value [11] was 0.0022.

For NNLLRAIEAQQIILLQ, the DR4w4 binding ([12]; HIV DR super motif peptides, unit not given) was 0.0150 and the DR7 binding [9] was 0.0150.

PPVVAKEIVASCDKC showed a DR2w2β2 binding information [13] of −0.0021, a DR4w4 binding information ([12]; Table XXb, HIV DR 3a motif peptides) of 0.0085 and a DR5w11 binding information [14] of 0.0006. The DR3 binding information [15] was −0.0130.
